Publication PMC3645732, “A Differential Redox Regulation of the Pathways Metabolizing Glyceraldehyde-3-Phosphate Tunes the Production of Reducing Power in the Cytosol of Plant Cells” (International Journal of Molecular Sciences, 2013)

Substrate: NC(=O)c1ccc[n+]([C@@H]2O[C@H](COP(=O)([O-])OP(=O)(O)OC[C@H]3O[C@@H](n4cnc5c(N)ncnc54)[C@H](O)[C@@H]3O)[C@@H](O)[C@H]2O)c1
Assay: purified protein
Format: biochemical, Triticum aestivum

B1: Ga3PDHase (phosphorylating NAD+-dependent glyceraldehyde-3-phosphate dehydrogenase, EC 1.2.1.12) (Triticum aestivum) (protein)
chain: MGKIKIGINGFGRIGRLVARVALQSPDVELVAVNDPFITTDYMTYMFKYDTVHGQWKHHEVKVKDSKTLLFGEKEVAVFGCRNPEEIPWAAAGAEYVVESTGVFTDKDKAAAHIKGGAKKVIISAPSKDAPMFVCGVNEKEYKSDIDIVSNASCTTNCLAPLAKVINDRFGIVEGLMTTVHAMTATQKTVDGPSSKDWRGGRAASFNIIPSSTGAAKAVGKVLPELNGKLTGMAFRVPTVDVSVVDLTVRLAKPATYDQIKAAIKEESEGNLKGILGYVDEDLVSTDFQGDNRSSIFDAKAGIALNDHFVKLVSWYDNEWGYSTRVVDLIRHMHSTK
notes: recombinant wheat gapC (NCBI EF592180), homotetramer, E. coli
- K0.5: 136 µM
